Data set [1] concerns the target T1, His-DAZL (Mus musculus, UniProt Q64368 1-298).
T1 sequence: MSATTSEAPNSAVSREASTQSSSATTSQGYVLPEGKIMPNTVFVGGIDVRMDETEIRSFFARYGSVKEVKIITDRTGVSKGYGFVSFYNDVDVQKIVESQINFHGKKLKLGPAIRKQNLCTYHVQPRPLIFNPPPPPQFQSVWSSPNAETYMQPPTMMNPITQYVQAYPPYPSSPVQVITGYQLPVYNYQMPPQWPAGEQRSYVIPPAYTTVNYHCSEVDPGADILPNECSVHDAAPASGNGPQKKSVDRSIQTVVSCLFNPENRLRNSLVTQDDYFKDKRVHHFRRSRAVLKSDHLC
Description: EMSA; heparin, yeast tRNA; EMSA: 1 ug DAZL in 10 ul, 20 mM Tris pH 7.4, 2.5 mM MgCl2, 60 mM KCl, 1 mM DTT, 5% glycerol, RT, then 5 mg/ml heparin + 0.5 mg/ml yeast tRNA; pull-down: 20 mM Tris-HCl pH 7.4, 2.5 mM MgCl2, 120 mM KCl, 1 mM DTT, 5% glycerol, RT, 5 mg/ml heparin. Particulars: protein: recombinant; tags: His (pET-28a); label: 32P (gel shift). (In general: A gel shift assay detects complexes by their altered migration in electrophoresis.)

The target of data set [2] is T1, His-DAZL. Description: competition; cold C_40 1, 5, 10 ng vs labeled CU_40; EMSA: 1 ug DAZL in 10 ul, 20 mM Tris pH 7.4, 2.5 mM MgCl2, 60 mM KCl, 1 mM DTT, 5% glycerol, RT, then 5 mg/ml heparin + 0.5 mg/ml yeast tRNA; pull-down: 20 mM Tris-HCl pH 7.4, 2.5 mM MgCl2, 120 mM KCl, 1 mM DTT, 5% glycerol, RT, 5 mg/ml heparin. Particulars: protein: recombinant; tags: His (pET-28a).

The record followed here is paper PMC3637229, “Differential Translation of Dazap1 Transcripts during Spermatogenesis”.

B1: Dazap1 3'UTR C region (ssRNA)
RNA: AGGGUUUAAAAAACGCCUUCAGCUUUAAUUCAGAAUUUCAGGUUUCUUUUUCUUCUUCCUUUUUUUUCCUUUUUUUGAGAUUAUUUUCUUGAGCCUUUUGUUUUAUGGUAUAUUGUAAACUUUUAUGUUAAAGAAAAAAUAUACAUUUACAAAUUGUGAGAUUUUUAAGAGAAAUUUUCUACAAUGUAUACUGGCUUAUUUUUUAAUUUAAAGCAGGGUUCGGGUG
On to B1, for which, in the data set with His-DAZL [1], the binding result is recorded as “binds”.
On the same count and under the same terms, the same measure for AGGUUUCUUUUUCUUCUUCCUUUUUUUUCCUUUUUUUGAG (ssRNA) [CU_40]: “binds”.
Consider AGGGUUUAAAAAACGCCUUCAGCUUUAAUUCAGAAUUUCAGGU (ssRNA) [C_40], for which the binding result with His-DAZL [2] was “no binding”.
